Biological target: T1, Met-Gly-Met-Met peptide substrate
T1 chain: MGMM

B1: N-terminal HA-tagged wild-type yeast MetAP2 (protein)
chain: YPYDVPDYAMTDAEIENSPASDLKELNLENEGVEQQDQAKADESDPVESKKKKNKKKKKKKSNVKKIELLFPDGKYPEGAWMDYHQDFNLQRTTDEESRYLKRDLERAEHWNDVRKGAEIHRRVRRAIKDRIVPGMKLMDIADMIENTTRKYTGAENLLAMEDPKSQGIGFPTGLSLNHCAAHFTPNAGDKTVLKYEDVMKVDYGVQVNGNIIDSAFTVSFDPQYDNLLAAVKDATYTGIKEAGIDVRLTDIGEAIQEVMESYEVEINGETYQVKPCRNLCGHSIAPYRIHGGKSVPIVKNGDTTKMEEGEHFAIETFGSTGRGYVTAGGEVSHYARSAEDHQVMPTLDSAKNLLKTIDRNFGTLPFCRRYLDRLGQEKYLFALNNLVRHGLVQDYPPLNDIPGSYTAQFEHTILLHAHKKEVVSKGDDYGKMRFQMASSLGIILL
  Specific activity (MetAP activity on 2 mM Met-Gly-Met-Met): Specific activity for the wild-type MetAP2 was 11±0.5 U/mg

B2: N-terminal HA-tagged yeast MetAP2 (H174A) (protein)
chain: YPYDVPDYAMTDAEIENSPASDLKELNLENEGVEQQDQAKADESDPVESKKKKNKKKKKKKSNVKKIELLFPDGKYPEGAWMDYHQDFNLQRTTDEESRYLKRDLERAEHWNDVRKGAEIHRRVRRAIKDRIVPGMKLMDIADMIENTTRKYTGAENLLAMEDPKSQGIGFPTGLSLNHCAAAFTPNAGDKTVLKYEDVMKVDYGVQVNGNIIDSAFTVSFDPQYDNLLAAVKDATYTGIKEAGIDVRLTDIGEAIQEVMESYEVEINGETYQVKPCRNLCGHSIAPYRIHGGKSVPIVKNGDTTKMEEGEHFAIETFGSTGRGYVTAGGEVSHYARSAEDHQVMPTLDSAKNLLKTIDRNFGTLPFCRRYLDRLGQEKYLFALNNLVRHGLVQDYPPLNDIPGSYTAQFEHTILLHAHKKEVVSKGDDYGKMRFQMASSLGIILL
  catalytic activity in vitro: displayed no detectable activity against a peptide substrate (MGMM)

— US20020182701
